Publication PMC6179999

Columns and labels:
[1] = system: P27467; test: AUC; AUC-FDS of GFP-Wnt3a in culture medium with serum from which afamin was immuno-depleted before the cultivation; peak areas normalised by the whole area
[2] = system: P27467; test: AUC; AUC-FDS of GFP-Wnt3a in culture medium with mock-treated serum; peak areas normalised by the whole area
[3] = system: P27467; test: AUC; AUC-FDS; conditioned medium of L cells secreting GFP-Wnt3a co-cultured with HEK293 cells secreting mouse sFRP2

Substance: GFP-tagged mouse Wnt3a secreted from stably transformed mouse L cells
- relative area of the HMW peaks, afamin pre-depleted serum [1]: that of the HMW peaks was increased from 51.1 ± 4.8% to 69.6 ± 1.2%
- relative area of the HMW peaks, mock-treated serum [2]: that of the HMW peaks was increased from 51.1 ± 4.8% to 69.6 ± 1.2%
- relative area of HMW complex peaks, with sFRP2 [3]: relative area of HMG peaks was decreased from 46.4 ± 0.8% to 33.6 ± 2.9% by the addition of sFRP2
